Publication PMC5084695 (Biochemistry, 2016)

Target: the molecule itself
Assay: SEC-MALS

B1: SbnA (wild type, Staphylococcus aureus strain Newman) (enzyme, UniProt A6QDA0 1-326, looked up)
chain: MIEKSQACHDSLLDSVGQTPMVQLHQLFPKHEVFAKLEYMNPGGSMKDRPAKYIIEHGIKHGLITENTHLIESTSGNLGIALAMIAKIKGLKLTCVVDPKISPTNLKIIKSYGANVEMVEEPDAHGGYLMTRIAKVQELLATIDDAYWINQYANELNWQSHYHGAGTEIVETIKQPIDYFVAPVSTTGSIMGMSRKIKEVHPNAQIVAVDAKGSVIFGDKPINRELPGIGASRVPEILNRSEINQVIHVDDYQSALGCRKLIDYEGIFAGGSTGSIIAAIEQLITSIEEGATIVTILPDRGDRYLDLVYSDTWLEKMKSRQGVKSE
modifications: PLP (pyridoxal 5'-phosphate) covalently bound to Lys47 by an internal Schiff base (as isolated)
Q: How did the “stoichiometry N” value turn out when B1 was run?
A: 2
